Key:
HeLa Kyoto [1] = experiment: solubility in G1/S (NP-40 vs SDS abundance) (log2 ratio); higher = more soluble; details: cell cycle stage: G1/S
HeLa Kyoto [2] = experiment: melting temperature (median over replicates), in situ; higher = more thermally stable
HeLa Kyoto [3] = experiment: solubility change mitosis vs G1/S (difference of NP-40 vs SDS log2 ratios) (log2 ratio difference); higher = more soluble in mitosis
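For melting temperature (median over replicates), in situ in this document: HeLa Kyoto cells synchronized by double thymidine or nocodazole block, proteins quantified by TMT10plex mass spectrometry, three independent biological replicates.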
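For solubility change mitosis vs G1/S (difference of NP-40 vs SDS log2 ratios) in this document: synchronized HeLa Kyoto cells (double thymidine block for G1/S, nocodazole release for mitosis), protein amounts in NP-40 versus SDS lysates quantified by mass spectrometry, three biological replicates.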
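For solubility in G1/S (NP-40 vs SDS abundance) in this document: HeLa Kyoto cells arrested at G1/S by double thymidine block, proteins quantified by TMT10plex mass spectrometry in mild NP-40 versus SDS extracts, three biological replicates.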

Sequence	solubility in G1/S (log2) (HeLa Kyoto [1])	melting temperature (HeLa Kyoto [2]; cell cycle stage: G1/S)	melting temperature (HeLa Kyoto [2]; cell cycle stage: mitosis)	solubility change mitosis (log2) (HeLa Kyoto [3])
MGDEKDSWKVKTLDEILQEKKRRKEQEEKAEIKRLKNSDDRDSKRDSLEEGELRDHRMEITIRNSPYRREDSMEDRGEEDDSLAIKPPQQMSRKEKAHHRKDEKRKEKRRHRSHSAEGGKHARVKEKEREHERRKRHREEQDKARREWERQKRREMAREHSRRERDRLEQLERKRERERKMREQQKEQREQKERERRAEERRKEREARREVSAHHRTMREDYSDKVKASHWSRSPPRPPRERFELGDGRKPGEARPAPAQKPAQLKEEKMEERDLLSDLQDISDSERKTSSAESSSAESGSGSEEEEEEEEEEEEEGSTSEESEEEEEEEEEEEEETGSNSEEASEQSAEEVSEEEMSEDEERENENHLLVVPESRFDRDSGESEEAEEEVGEGTPQSSALTEGDYVPDSPALSPIELKQELPKYLPALQGCRSVEEFQCLNRIEEGTYGVVYRAKDKKTDEIVALKRLKMEKEKEGFPITSLREINTILKAQHPNIVTVREIVVGSNMDKIYIVMNYVEHDLKSLMETMKQPFLPGEVKTLMIQLLRGVKHLHDNWILHRDLKTSNLLLSHAGILKVGDFGLAREYGSPLKAYTPVVVTLWYRAPELLLGAKEYSTAVDMWSVGCIFGELLTQKPLFPGKSEIDQINKVFKDLGTPSEKIWPGYSELPAVKKMTFSEHPYNNLRKRFGALLSDQGFDLMNKFLTYFPGRRISAEDGLKHEYFRETPLPIDPSMFPTWPAKSEQQRVKRGTSPRPPEGGLGYSQLGDDDLKETGFHLTTTNQGASAAGPGFSLKF [CDC2L1]	-0.672	46.5 °C	50.3 °C	0.114
MGEQPIFSTRAHVFQIDPNTKKNWVPTSKHAVTVSYFYDSTRNVYRIISLDGSKAIINSTITPNMTFTKTSQKFGQWADSRANTVYGLGFSSEHHLSKFAEKFQEFKEAARLAKEKSQEKMELTSTPSQESAGGDLQSPLTPESINGTDDERTPDVTQNSEPRAEPTQNALPFSHSSAISKHWEAELATLKGNNAKLTAALLESTANVKQWKQQLAAYQEEAERLHKRVTELECVSSQANAVHTHKTELNQTIQELEETLKLKEEEIERLKQEIDNARELQEQRDSLTQKLQEVEIRNKDLEGQLSDLEQRLEKSQNEQEAFRNNLKTLLEILDGKIFELTELRDNLAKLLECS [HOMER1]	0.426	51 °C	51.9 °C	0.185
MGFLRRLIYRRRPMIYVESSEESSDEQPDEVESPTQSQDSTPAEEREDEGASAAQGQEPEADSQELVQPKTGCELGDGPDTKRVCLRNEEQMKLPAEGPEPEADSQEQVHPKTGCERGDGPDVQELGLPNPEEVKTPEEDEGQSQP [PAGE1]	-0.617	53.3 °C	51.6 °C	0.603
MGNLFGRKKQSRVTEQDKAILQLKQQRDKLRQYQKRIAQQLERERALARQLLRDGRKERAKLLLKKKRYQEQLLDRTENQISSLEAMVQSIEFTQIEMKVMEGLQFGNECLNKMHQVMSIEEVERILDETQEAVEYQRQIDELLAGSFTQEDEDAILEELSAITQEQIELPEVPSEPLPEKIPENVPVKARPRQAELVAAS [CHMP6]	0.453	–	52.2 °C	0.149
MGNTLTCCVSPNASPKLGRRAGSAELYCASDIYEAVSGDAVAVAPAVVEPAELDFGEGEGHHLQHISDREMPEDLALESNPSDHPRASTIFLSKSQTDVREKRKSNHLNHVSPGQLTKKYSSCSTIFLDDSTVSQPNLRTTVKCVTLAIYYHIKNRDANRSLDIFDERSHPLTREKVPEEYFKHDPEHKFIYRFVRTLFSAAQLTAECAIVTLVYLERLLTYAEIDICPTNWKRIVLGAILLASKVWDDQAVWNVDYCQILKDITVEDMNEMERHFLELLQFNINVPASVYAKYYFDLRSLADDNNLNFLFAPLSKERAQNLEAISRLCEDKDLCRAAMRRSFSADNFIGIQRSKAILS [CCNYL1]	-0.167	48.9 °C	49.2 °C	-0.0896
MGPRARPALLLLMLLQTAVLQGRLLRSHSLHYLFMGASEQDLGLSLFEALGYVDDQLFVFYDHESRRVEPRTPWVSSRISSQMWLQLSQSLKGWDHMFTVDFWTIMENHNHSKESHTLQVILGCEMQEDNSTEGYWKYGYDGQDHLEFCPDTLDWRAAEPRAWPTKLEWERHKIRARQNRAYLERDCPAQLQQLLELGRGVLDQQVPPLVKVTHHVTSSVTTLRCRALNYYPQNITMKWLKDKQPMDAKEFEPKDVLPNGDGTYQGWITLAVPPGEEQRYTCQVEHPGLDQPLIVIWEPSPSGTLVIGVISGIAVFVVILFIGILFIILRKRQGSRGAMGHYVLAERE [HFE]	0.207	55.9 °C	57.2 °C	0.0716
MGQQVGRVGEAPGLQQPQPRGIRGSSAARPSGRRRDPAGRTTETGFNIFTQHDHFASCVEDGFEGDKTGGSSPEALHRPYGCDVEPQALNEAIRWSSKENLLGATESDPNLFVALYDFVASGDNTLSITKGEKLRVLGYNQNGEWSEVRSKNGQGWVPSNYITPVNSLEKHSWYHGPVSRSAAEYLLSSLINGSFLVRESESSPGQLSISLRYEGRVYHYRINTTADGKVYVTAESRFSTLAELVHHHSTVADGLVTTLHYPAPKCNKPTVYGVSPIHDKWEMERTDITMKHKLGGGQYGEVYVGVWKKYSLTVAVKTLKEDTMEVEEFLKEAAVMKEIKHPNLVQLLGVCTLEPPFYIVTEYMPYGNLLDYLRECNREEVTAVVLLYMATQISSAMEYLEKKNFIHRDLAARNCLVGENHVVKVADFGLSRLMTGDTYTAHAGAKFPIKWTAPESLAYNTFSIKSDVWAFGVLLWEIATYGMSPYPGIDLSQVYDLLEKGYRMEQPEGCPPKVYELMRACWKWSPADRPSFAETHQAFETMFHDSSISEEVAEELGRAASSSSVVPYLPRLPILPSKTRTLKKQVENKENIEGAQDATENSASSLAPGFIRGAQASSGSPALPRKQRDKSPSSLLEDAKETCFTRDRKGGFFSSFMKKRNAPTPPKRSSSFREMENQPHKKYELTGNFSSVASLQHADGFSFTPAQQEANLVPPKCYGGSFAQRNLCNDDGGGGGGSGTAGGGWSGITGFFTPRLIKKTLGLRAGKPTASDDTSKPFPRSNSTSSMSSGLPEQDRMAMTLPRNCQRSKLQLERTVSTSSQPEENVDRANDMLPKKSEESAAPSRERPKAKLLPRGATALPLRTPSGDLAITEKDPPGVGVAGVAAAPKGKEKNGGARLGMAGVPEDGEQPGWPSPAKAAPVLPTTHNHKVPVLISPTLKHTPADVQLIGTDSQGNKFKLLSEHQVTSSGDKDRPRRVKPKCAPPPPPVMRLLQHPSICSDPTEEPTALTAGQSTSETQEGGKKAALGAVPISGKAGRPVMPPPQVPLPTSSISPAKMANGTAGTKVALRKTKQAAEKISADKISKEALLECADLLSSALTEPVPNSQLVDTGHQLLDYCSGYVDCIPQTRNKFAFREAVSKLELSLQELQVSSAAAGVPGTNPVLNNLLSCVQEISDVVQR [ABL2]	0.0755	49.2 °C	49.1 °C	-0.139
MGREFGNLTRMRHVISYSLSPFEQRAYPHVFTKGIPNVLRRIRESFFRVVPQFVVFYLIYTWGTEEFERSKRKNPAAYENDK [UQCRQ]	-0.497	53.1 °C	51.8 °C	-0.186
MGSQALPPGPMQTLIFFDMEATGLPFSQPKVTELCLLAVHRCALESPPTSQGPPPTVPPPPRVVDKLSLCVAPGKACSPAASEITGLSTAVLAAHGRQCFDDNLANLLLAFLRRQPQPWCLVAHNGDRYDFPLLQAELAMLGLTSALDGAFCVDSITALKALERASSPSEHGPRKSYSLGSIYTRLYGQSPPDSHTAEGDVLALLSICQWRPQALLRWVDAHARPFGTIRPMYGVTASARTKPRPSAVTTTAHLATTRNTSPSLGESRGTKDLPPVKDPGALSREGLLAPLGLLAILTLAVATLYGLSLATPGE [TREX1]	-0.198	53.5 °C	56.2 °C	0.329
MGSTVPRSASVLLLLLLLRRAEQPCGAELTFELPDNAKQCFHEEVEQGVKFSLDYQVITGGHYDVDCYVEDPQGNTIYRETKKQYDSFTYRAEVKGVYQFCFSNEFSTFSHKTVYFDFQVGDEPPILPDMGNRVTALTQMESACVTIHEALKTVIDSQTHYRLREAQDRARAEDLNSRVSYWSVGETIALFVVSFSQVLLLKSFFTEKRPISRAVHS [TMED3]	-0.0742	53.4 °C	53.4 °C	-0.000936

— the supplement of paper PMC5998384
